{"source": "patent US20110105394A1", "about": "(Novo Nordisk, published 2011)", "binders": {"B1": {"name": "N-alpha-[(S)-4-Carboxy-4-(19-carboxynonadecanoylamino)butyryl]-[Arg17]-pramlintide (2-37) (peptide)", "peptide": "{C20 diacid-γGlu}-CNTATCATQRLANFLRHSSNNFGPILPPTNVGSNTY-NH2", "modifications": "disulfide 1-6", "SMILES": "CC[C@H](C)[C@H](NC(=O)[C@@H]1CCCN1C(=O)CNC(=O)[C@H](Cc1ccccc1)NC(=O)[C@H](CC(N)=O)NC(=O)[C@H](CC(N)=O)NC(=O)[C@H](CO)NC(=O)[C@H](CO)NC(=O)[C@H](Cc1c[nH]cn1)NC(=O)[C@H](CCCNC(=N)N)NC(=O)[C@H](CC(C)C)NC(=O)[C@H](Cc1ccccc1)NC(=O)[C@H](CC(N)=O)NC(=O)[C@H](C)NC(=O)[C@H](CC(C)C)NC(=O)[C@H](CCCNC(=N)N)NC(=O)[C@H](CCC(N)=O)NC(=O)[C@@H](NC(=O)[C@H](C)NC(=O)[C@@H]1CSSC[C@H](NC(=O)CC[C@H](NC(=O)CCCCCCCCCCCCCCCCCCC(=O)O)C(=O)O)C(=O)N[C@@H](CC(N)=O)C(=O)N[C@@H]([C@@H](C)O)C(=O)N[C@@H](C)C(=O)N[C@@H]([C@@H](C)O)C(=O)N1)[C@@H](C)O)C(=O)N[C@@H](CC(C)C)C(=O)N1CCC[C@H]1C(=O)N1CCC[C@H]1C(=O)N[C@H](C(=O)N[C@@H](CC(N)=O)C(=O)N[C@H](C(=O)NCC(=O)N[C@@H](CO)C(=O)N[C@@H](CC(N)=O)C(=O)N[C@H](C(=O)N[C@@H](Cc1ccc(O)cc1)C(N)=O)[C@@H](C)O)C(C)C)[C@@H](C)O"}, "B2": {"name": "N-alpha-[(S)-4-Carboxy-4-(19-carboxynonadecanoylamino)butyryl]-[Ser17]-pramlintide (2-37) (peptide)", "peptide": "{C20 diacid-γGlu}-CNTATCATQRLANFLSHSSNNFGPILPPTNVGSNTY-NH2", "modifications": "disulfide 1-6", "SMILES": "CC[C@H](C)[C@H](NC(=O)[C@@H]1CCCN1C(=O)CNC(=O)[C@H](Cc1ccccc1)NC(=O)[C@H](CC(N)=O)NC(=O)[C@H](CC(N)=O)NC(=O)[C@H](CO)NC(=O)[C@H](CO)NC(=O)[C@H](Cc1c[nH]cn1)NC(=O)[C@H](CO)NC(=O)[C@H](CC(C)C)NC(=O)[C@H](Cc1ccccc1)NC(=O)[C@H](CC(N)=O)NC(=O)[C@H](C)NC(=O)[C@H](CC(C)C)NC(=O)[C@H](CCCNC(=N)N)NC(=O)[C@H](CCC(N)=O)NC(=O)[C@@H](NC(=O)[C@H](C)NC(=O)[C@@H]1CSSC[C@H](NC(=O)CC[C@H](NC(=O)CCCCCCCCCCCCCCCCCCC(=O)O)C(=O)O)C(=O)N[C@@H](CC(N)=O)C(=O)N[C@@H]([C@@H](C)O)C(=O)N[C@@H](C)C(=O)N[C@@H]([C@@H](C)O)C(=O)N1)[C@@H](C)O)C(=O)N[C@@H](CC(C)C)C(=O)N1CCC[C@H]1C(=O)N1CCC[C@H]1C(=O)N[C@H](C(=O)N[C@@H](CC(N)=O)C(=O)N[C@H](C(=O)NCC(=O)N[C@@H](CO)C(=O)N[C@@H](CC(N)=O)C(=O)N[C@H](C(=O)N[C@@H](Cc1ccc(O)cc1)C(N)=O)[C@@H](C)O)C(C)C)[C@@H](C)O"}, "B3": {"name": "N-alpha-[(S)-4-Carboxy-4-(19-carboxynonadecanoylamino)butyryl]-[Pro17]-pramlintide (2-37) (peptide)", "peptide": "{C20 diacid-γGlu}-CNTATCATQRLANFLPHSSNNFGPILPPTNVGSNTY-NH2", "modifications": "disulfide 1-6", "SMILES": "CC[C@H](C)[C@H](NC(=O)[C@@H]1CCCN1C(=O)CNC(=O)[C@H](Cc1ccccc1)NC(=O)[C@H](CC(N)=O)NC(=O)[C@H](CC(N)=O)NC(=O)[C@H](CO)NC(=O)[C@H](CO)NC(=O)[C@H](Cc1c[nH]cn1)NC(=O)[C@@H]1CCCN1C(=O)[C@H](CC(C)C)NC(=O)[C@H](Cc1ccccc1)NC(=O)[C@H](CC(N)=O)NC(=O)[C@H](C)NC(=O)[C@H](CC(C)C)NC(=O)[C@H](CCCNC(=N)N)NC(=O)[C@H](CCC(N)=O)NC(=O)[C@@H](NC(=O)[C@H](C)NC(=O)[C@@H]1CSSC[C@H](NC(=O)CC[C@H](NC(=O)CCCCCCCCCCCCCCCCCCC(=O)O)C(=O)O)C(=O)N[C@@H](CC(N)=O)C(=O)N[C@@H]([C@@H](C)O)C(=O)N[C@@H](C)C(=O)N[C@@H]([C@@H](C)O)C(=O)N1)[C@@H](C)O)C(=O)N[C@@H](CC(C)C)C(=O)N1CCC[C@H]1C(=O)N1CCC[C@H]1C(=O)N[C@H](C(=O)N[C@@H](CC(N)=O)C(=O)N[C@H](C(=O)NCC(=O)N[C@@H](CO)C(=O)N[C@@H](CC(N)=O)C(=O)N[C@H](C(=O)N[C@@H](Cc1ccc(O)cc1)C(N)=O)[C@@H](C)O)C(C)C)[C@@H](C)O"}, "B4": {"name": "N-alpha-[(S)-4-Carboxy-4-(19-carboxynonadecanoylamino)butyryl]-Arg-[His17]-pramlintide (peptide)", "peptide": "X2-RKCNTATCATQRLANFLHHSSNNFGPILPPTNVGSNTY-NH2", "modifications": "disulfide 3-8", "SMILES": "CC[C@H](C)[C@H](NC(=O)[C@@H]1CCCN1C(=O)CNC(=O)[C@H](Cc1ccccc1)NC(=O)[C@H](CC(N)=O)NC(=O)[C@H](CC(N)=O)NC(=O)[C@H](CO)NC(=O)[C@H](CO)NC(=O)[C@H](Cc1c[nH]cn1)NC(=O)[C@H](Cc1c[nH]cn1)NC(=O)[C@H](CC(C)C)NC(=O)[C@H](Cc1ccccc1)NC(=O)[C@H](CC(N)=O)NC(=O)[C@H](C)NC(=O)[C@H](CC(C)C)NC(=O)[C@H](CCCNC(=N)N)NC(=O)[C@H](CCC(N)=O)NC(=O)[C@@H](NC(=O)[C@H](C)NC(=O)[C@@H]1CSSC[C@H](NC(=O)[C@H](CCCCN)NC(=O)[C@H](CCCNC(=N)N)NC(=O)CC[C@H](NC(=O)CCCCCCCCCCCCCCCCCCC(=O)O)C(=O)O)C(=O)N[C@@H](CC(N)=O)C(=O)N[C@@H]([C@@H](C)O)C(=O)N[C@@H](C)C(=O)N[C@@H]([C@@H](C)O)C(=O)N1)[C@@H](C)O)C(=O)N[C@@H](CC(C)C)C(=O)N1CCC[C@H]1C(=O)N1CCC[C@H]1C(=O)N[C@H](C(=O)N[C@@H](CC(N)=O)C(=O)N[C@H](C(=O)NCC(=O)N[C@@H](CO)C(=O)N[C@@H](CC(N)=O)C(=O)N[C@H](C(=O)N[C@@H](Cc1ccc(O)cc1)C(N)=O)[C@@H](C)O)C(C)C)[C@@H](C)O"}, "B5": {"name": "N-alpha-[(S)-4-Carboxy-4-(19-carboxynonadecanoylamino)butyryl]-[Ala17]-pramlintide (2-37) (peptide)", "peptide": "CNTATCATQRLANFLAHSSNNFGPILPPTNVGSNTY-NH2", "modifications": "disulfide 1-6; not fully specified (N-terminus); printed as N-alpha-[(S)-4-Carboxy-4-(19-carboxynonadecanoylamino)butyryl]-[Ala17]-pramlintide (2-37)"}, "B6": {"name": "N-alpha-[(S)-4-Carboxy-4-(19-carboxynonadecanoylamino)butyryl]-[Gly17]-pramlintide (2-37) (peptide)", "peptide": "{C20 diacid-γGlu}-CNTATCATQRLANFLGHSSNNFGPILPPTNVGSNTY-NH2", "modifications": "disulfide 1-6", "SMILES": "CC[C@H](C)[C@H](NC(=O)[C@@H]1CCCN1C(=O)CNC(=O)[C@H](Cc1ccccc1)NC(=O)[C@H](CC(N)=O)NC(=O)[C@H](CC(N)=O)NC(=O)[C@H](CO)NC(=O)[C@H](CO)NC(=O)[C@H](Cc1c[nH]cn1)NC(=O)CNC(=O)[C@H](CC(C)C)NC(=O)[C@H](Cc1ccccc1)NC(=O)[C@H](CC(N)=O)NC(=O)[C@H](C)NC(=O)[C@H](CC(C)C)NC(=O)[C@H](CCCNC(=N)N)NC(=O)[C@H](CCC(N)=O)NC(=O)[C@@H](NC(=O)[C@H](C)NC(=O)[C@@H]1CSSC[C@H](NC(=O)CC[C@H](NC(=O)CCCCCCCCCCCCCCCCCCC(=O)O)C(=O)O)C(=O)N[C@@H](CC(N)=O)C(=O)N[C@@H]([C@@H](C)O)C(=O)N[C@@H](C)C(=O)N[C@@H]([C@@H](C)O)C(=O)N1)[C@@H](C)O)C(=O)N[C@@H](CC(C)C)C(=O)N1CCC[C@H]1C(=O)N1CCC[C@H]1C(=O)N[C@H](C(=O)N[C@@H](CC(N)=O)C(=O)N[C@H](C(=O)NCC(=O)N[C@@H](CO)C(=O)N[C@@H](CC(N)=O)C(=O)N[C@H](C(=O)N[C@@H](Cc1ccc(O)cc1)C(N)=O)[C@@H](C)O)C(C)C)[C@@H](C)O"}, "B7": {"name": "N-alpha-[(S)-4-Carboxy-4-(19-carboxynonadecanoylamino)butyryl]-Arg-[Gly17]-pramlintide (peptide)", "peptide": "X2-RKCNTATCATQRLANFLGHSSNNFGPILPPTNVGSNTY-NH2", "modifications": "disulfide 3-8", "SMILES": "CC[C@H](C)[C@H](NC(=O)[C@@H]1CCCN1C(=O)CNC(=O)[C@H](Cc1ccccc1)NC(=O)[C@H](CC(N)=O)NC(=O)[C@H](CC(N)=O)NC(=O)[C@H](CO)NC(=O)[C@H](CO)NC(=O)[C@H](Cc1c[nH]cn1)NC(=O)CNC(=O)[C@H](CC(C)C)NC(=O)[C@H](Cc1ccccc1)NC(=O)[C@H](CC(N)=O)NC(=O)[C@H](C)NC(=O)[C@H](CC(C)C)NC(=O)[C@H](CCCNC(=N)N)NC(=O)[C@H](CCC(N)=O)NC(=O)[C@@H](NC(=O)[C@H](C)NC(=O)[C@@H]1CSSC[C@H](NC(=O)[C@H](CCCCN)NC(=O)[C@H](CCCNC(=N)N)NC(=O)CC[C@H](NC(=O)CCCCCCCCCCCCCCCCCCC(=O)O)C(=O)O)C(=O)N[C@@H](CC(N)=O)C(=O)N[C@@H]([C@@H](C)O)C(=O)N[C@@H](C)C(=O)N[C@@H]([C@@H](C)O)C(=O)N1)[C@@H](C)O)C(=O)N[C@@H](CC(C)C)C(=O)N1CCC[C@H]1C(=O)N1CCC[C@H]1C(=O)N[C@H](C(=O)N[C@@H](CC(N)=O)C(=O)N[C@H](C(=O)NCC(=O)N[C@@H](CO)C(=O)N[C@@H](CC(N)=O)C(=O)N[C@H](C(=O)N[C@@H](Cc1ccc(O)cc1)C(N)=O)[C@@H](C)O)C(C)C)[C@@H](C)O"}}, "note": "*1 amine or outer side, *2 acyl side, *3 side chain or, on linkers, in order; H or OH if unused. Bridges are numbered along the chain shown (N, C = ends). Where no end group is shown, it is not given here. The star is where a group is joined. X2 = (S)‑4‑Carboxy‑4‑(19-carboxynonadecanoylamino)butyryl, O=C(O)CCCCCCCCCCCCCCCCCCC(=O)N[C@@H](CCC(=O)*)C(=O)O; X1 = (S)‑4‑Carboxy‑4‑(17-carboxyheptadecanoylamino)butyryl, O=C(O)CCCCCCCCCCCCCCCCC(=O)N[C@@H](CCC(=O)*)C(=O)O; C20 diacid = O=C(O)CCCCCCCCCCCCCCCCCCC(=O)*; γGlu = O=C(O)[C@H](CCC(=O)[*:2])N[*:1]; AEEA = NCCOCCOCC(=O)O", "data": [{"target": "T1, Amylin 3(a) receptor (human calcitonin receptor (CTa) with RAMP-3) (human, UniProt P30988 25-474; O60896 24-148, limits assumed)", "T1 sequence (looked up) 1": "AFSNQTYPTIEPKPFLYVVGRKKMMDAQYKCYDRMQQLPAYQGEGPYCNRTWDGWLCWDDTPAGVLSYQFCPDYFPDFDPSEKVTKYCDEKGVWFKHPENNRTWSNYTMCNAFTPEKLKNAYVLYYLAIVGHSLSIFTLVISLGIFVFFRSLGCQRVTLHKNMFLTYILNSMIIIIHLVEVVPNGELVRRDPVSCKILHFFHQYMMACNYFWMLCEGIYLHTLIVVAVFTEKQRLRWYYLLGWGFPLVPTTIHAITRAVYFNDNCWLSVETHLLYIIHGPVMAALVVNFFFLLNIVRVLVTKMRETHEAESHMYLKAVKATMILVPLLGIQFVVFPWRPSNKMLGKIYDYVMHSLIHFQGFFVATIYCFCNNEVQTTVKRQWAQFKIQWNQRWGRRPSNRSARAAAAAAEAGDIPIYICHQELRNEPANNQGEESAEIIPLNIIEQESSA", "T1 sequence (looked up) 2": "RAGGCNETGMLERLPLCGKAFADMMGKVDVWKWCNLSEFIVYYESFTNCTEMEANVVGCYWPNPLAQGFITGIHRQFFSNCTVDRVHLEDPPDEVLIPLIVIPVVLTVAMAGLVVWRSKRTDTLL", "assay": "cell-based or functional assay", "units": {"Potency Luciferase": "pM"}, "values": [{"binder": "B1", "Potency Luciferase": 200}, {"binder": "X1-CNTATCATQRLANFLHHSSNNFGPILPPTNVGSNTY-NH2 (disulfide 1-6)", "note": "[N-alpha-[(S)-4-Carboxy-4-(17-carboxyheptadecanoylamino)butyryl]-[His17]-pramlintide (2-37)]", "Potency Luciferase": 80}, {"binder": "B2", "Potency Luciferase": 100}, {"binder": "{C20 diacid-γGlu-AEEA}-CNTATCATQRLANFLHHSSNNFGPILPPTNVGSNTY-NH2 (disulfide 1-6)", "Potency Luciferase": 100}, {"binder": "B3", "Potency Luciferase": 8000}, {"binder": "B4", "Potency Luciferase": 80}, {"binder": "B5", "Potency Luciferase": 100}, {"binder": "B6", "Potency Luciferase": 400}, {"binder": "B7", "Potency Luciferase": 100}]}]}
